The Kd is the equilibrium constant for the complex coming apart. Low values mean higher affinity, high ones lower affinity.

Our source for the Kd values is patent US20190119378A1.

The target in assay [1] is sRAGE antigen (biotin-labeled). Description: ELISA with biotinylated sRAGE. On the technique in general: In an ELISA, binding on a coated surface is turned into a signal by an enzyme label.
Assay [2] deals with sRAGE antigen (biotin-labeled). Description: ELISA: antibody coated on plate, serial dilution of biotinylated sRAGE, HRP-streptavidin detection, Prism non-linear fit.
The target in assay [3] is sRAGE antigen (biotin-labeled). Described as above. The source holds these as a separate data set.

B1: humanized anti-RAGE antibody, full-length IgG1 (antibody, V domains shown)
VH: QVQLQESGPGLVKPSQTLSLTCAVYGGSITSGYYWNWIRQPPGKGLEWIGDISYDGSNNYNPSLKSRVTISRDTSKNQFSLKLSSVTAADTAVYYCVREDRSGYPPFANWGQGTLVTVSS
VL: DIQMTQSPSSLSASVGDRVTITCQASQDISNYLNWYQQKPGKAPKLLIYYTSRLHSGVPSRFSGSGSGTDFTFTISSLQPEDIATYYCQQGNTLPWTFGQGTKV
For B1, the Kd in assay [1] worked out at 133 nM; in assay [2], 42.1 nM.

B2: original murine anti-RAGE monoclonal antibody (IgG2a isotype with a Kappa light chain) (antibody, V domains shown)
VH: DVQLQESGPGLVKPSQSLSLNCSVTGSSITSGYYWNWIRQFPGNKLEWMGDISYDGSNNYNPSLKNRISITRDTSKNQVFMKLNSVTTEDTAIYKCVREDRSGYPPFANWGQGTLVTVSA
VL: DVQMTQTTSSLSASLGDRVTINCRASQDISNYLNWYQQKPDGTVKLLIYYTSRLHSGVPSRFSGSGSGTDYSLTISNLEQEDIATYFCQQGNTLPWTFGGGTKLEIK
For the molecule B2, the Kd in assay [1] came to 62.6 nM; in assay [3], 58 nM; in assay [2], 88.4 nM.

B3: mouse-human chimera anti-RAGE antibody (antibody, human IgG1, kappa, V domains shown)
VH: DVQLQESGPGLVKPSQSLSLNCSVTGSSITSGYYWNWIRQFPGNKLEWMGDISYDGSNNYNPSLKNRISITRDTSKNQVFMKLNSVTTEDTAIYKCVREDRSGYPPFANWGQGTLVTVSS
VL: DIQMTQTTSSLSASLGDRVTINCRASQDISNYLNWYQQKPDGTVKLLIYYTSRLHSGVPSRFSGSGSGTDYSLTISNLEQEDIATYFCQQGNTLPWTFGQGTKVEIKR
B3: the dissociation constant Kd amounted to 104 nM in assay [1], 40 nM in assay [3] and 38.7 nM in assay [2].
